According to patent publication US20160237156A1 (CALIFORNIA INSTITUTE FOR BIOMEDICAL RESEARCH, published 2016):

What was measured:
[1] = biological target: T1, SNAP-tag-CXCR4 (Tag-lite labeled CXCR4 cells, Cisbio Bioassays) (UniProt P61073 1-352, Tag-lite label on the SNAP-tag); assay: Tag-lite HTRF competition with 50 nM fluorescent SDF-1 on Tag-lite labeled CXCR4 cells
T1 construct: whole, on cells; Bought labelled cells; also called Tag-lite CXCR4 receptor; labeled SNAP-tag-CXCR4; not shown: SNAP-tag of the bought Tag-lite cells
T1 sequence (P61073 whole entry): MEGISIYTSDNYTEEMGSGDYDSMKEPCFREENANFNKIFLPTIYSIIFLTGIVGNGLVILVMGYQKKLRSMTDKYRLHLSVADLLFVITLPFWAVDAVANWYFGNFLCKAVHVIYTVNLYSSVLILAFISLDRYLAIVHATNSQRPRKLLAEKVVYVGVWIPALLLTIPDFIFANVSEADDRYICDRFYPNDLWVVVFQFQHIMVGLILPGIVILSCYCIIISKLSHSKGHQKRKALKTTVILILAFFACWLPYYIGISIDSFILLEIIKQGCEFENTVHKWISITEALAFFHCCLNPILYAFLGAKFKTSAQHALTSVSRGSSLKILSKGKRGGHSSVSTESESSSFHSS
Procedure: (§1) Briefly, 10⁶ Tag-lite labeled CXCR4 cells were thawed at 37° C., centrifuged for 5 min at 1200 g, and re-suspended in 2.7 ml 1×Tag-lite buffer after removal of supernatant.

[2] = biological target: T1, SNAP-tag-CXCR4 (Tag-lite labeled CXCR4 …); assay: Tag-lite HTRF competition with 50 nM fluorescent SDF-1, Cheng-Prusoff
Procedure: as §1

[3] = biological target: T2, Human neutrophil elastase (Elastin Products Company, Inc.) (human, UniProt P08246 30-247, limits assumed); assay: elastase inhibition assay with fluorogenic substrate MeOSuc-AAPV-AMC (Example 28); y axis read as residual activity
T2 sequence (looked up): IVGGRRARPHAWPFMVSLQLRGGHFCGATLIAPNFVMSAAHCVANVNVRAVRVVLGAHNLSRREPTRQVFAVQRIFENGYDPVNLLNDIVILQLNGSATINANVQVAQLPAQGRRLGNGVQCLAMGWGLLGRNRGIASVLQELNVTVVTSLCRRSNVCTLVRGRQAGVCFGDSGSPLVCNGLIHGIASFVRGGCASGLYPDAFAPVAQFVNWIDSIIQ

[4] = biological target: CXCR4 (human, UniProt P61073 1-352); assay: cell-based or functional assay
Sequence of CXCR4 (P61073 whole entry): as the sequence (P61073 whole entry) above

B1: trastuzumab-beta BCCX2 HC medium (antibody, human IgG1, kappa, V domains shown)
VH: EVQLVESGGGLVQPGGSLRLSCAASGFNIKDTYIHWVRQAPGKGLEWVARIYPTNGYTRYADSVKGRFTISADTSKNTAYLQMNSLRAEDTAVYYCSRETKKYRKCRGGRRWCYQKYNYEDYWGQGTLVTVSS
VL: not shown
notes: also called HMCX
IC50 [1]: 113 nM
Ki [2]: 25.1 nM

B2: Human BVK-beta HEI HC 6 (Fab, V domains shown)
VH: QVQLQESGPGLVRPSQTLSLTCTVSGFSLTGYGVNWVRQPPGRGLEWIGMIWGDGNTDYNSALKSRVTMLKDTSKNQFSLRLSSVTAADTAVYYCTSVHQEMCTASIPPQCYEWHVDVWGQGLLVTVSS
VL: DIQMTQSPSSLSASVGDRVTITCRASGNIHNYLAWYQQKPGKAPKLLIYYTTTLADGVPSRFSGSGSGTDYTFTISSLQPEDIATYYCQHFWSTPRTFGQGTKVEIKR
notes: also called HEI fusion protein
binding result [3]: binds

B3: Human BVK-beta HEI HC 8 (Fab, V domains shown)
VH: QVQLQESGPGLVRPSQTLSLTCTVSGFSLTGYGVNWVRQPPGRGLEWIGMIWGDGNTDYNSALKSRVTMLKDTSKNQFSLRLSSVTAADTAVYYCTSVHQETKMCTASIPPQCYNYEWHVDVWGQGLLVTVSS
VL: DIQMTQSPSSLSASVGDRVTITCRASGNIHNYLAWYQQKPGKAPKLLIYYTTTLADGVPSRFSGSGSGTDYTFTISSLQPEDIATYYCQHFWSTPRTFGQGTKVEIKR
notes: as for B2
binding result [3]: binds

B4: Human BVK-beta HEI HC 9 (Fab, V domains shown)
VH: QVQLQESGPGLVRPSQTLSLTCTVSGFSLTGYGVNWVRQPPGRGLEWIGMIWGDGNTDYNSALKSRVTMLKDTSKNQFSLRLSSVTAADTAVYYCTSVHQETKKMCTASIPPQCYYNYEWHVDVWGQGLLVTVSS
VL: DIQMTQSPSSLSASVGDRVTITCRASGNIHNYLAWYQQKPGKAPKLLIYYTTTLADGVPSRFSGSGSGTDYTFTISSLQPEDIATYYCQHFWSTPRTFGQGTKVEIKR
notes: as for B2
IC50 (read off the curve) [3]: ~40 nM

B5: BLV1H12-beta BCCX2 HC 4 IgG (antibody, V domains shown)
VH: ASGFSLSDKAVGWVRQAPGKALEWLGSIDETKKYQSYRKCRGGRRWCYQKSYTYNYETGYNPGLKSRLSITKDNSKSQVSLSVSSVTTEDSATYYCTSVHQGGGGSWHVDVWGQGLLVTVSS
VL: QAVLNQPSSVSGSLGQRVSITCSGSSSNVGNGYVSWYQLIPGSAPRTLIYGDTSRASGVPDRFSGSRSGNTATLTISSLQAEDEADYFCASAEDSSSNAVFGSGTTLTVLG
notes: Peptide grafted into CDRH2; also called bAb-AC4; BVL1H12-beta BCCX2 HC 4
IC50 [1]: 4.16 nM
inhibition of SDF-1 induced migration of Ramos cells, EC50 [4]: 3.2 nM
Ki [2]: 0.92 nM

B6: BLV1H12-beta BCCX2 HC 3 IgG (antibody, V domains shown)
VH: QVQLRESGPSLVKPSQTLSLTCTASGFSLSDKAVGWVRQAPGKALEWLGSIDTGGNTGYNPGLKSRLSITKDNSKSQVSLSVSSVTTEDSATYYCTSVHQETKKYQSYRKCRGGNGRRWCYQKSYTYNYEWHVDVWGQGLLVTVSS
VL: QAVLNQPSSVSGSLGQRVSITCSGSSSNVGNGYVSWYQLIPGSAPRTLIYGDTSRASGVPDRFSGSRSGNTATLTISSLQAEDEADYFCASAEDSSSNAVFGSGTTLTVLG
notes: Bovine-human chimera with human IgG1 Fc; also called bAb-AC3
IC50 [1]: 89.3 nM
Ki [2]: 19.8 nM

B7: BLV1H12-beta BCCX2 HC 2 IgG (antibody, V domains shown)
VH: QVQLRESGPSLVKPSQTLSLTCTASGFSLSDKAVGWVRQAPGKALEWLGSIDTGGNTGYNPGLKSRLSITKDNSKSQVSLSVSSVTTEDSATYYCTSVHQETKKYQSYRKCRGPRRWCYQKSYTYNYEWHVDVWGQGLLVTVSS
VL: QAVLNQPSSVSGSLGQRVSITCSGSSSNVGNGYVSWYQLIPGSAPRTLIYGDTSRASGVPDRFSGSRSGNTATLTISSLQAEDEADYFCASAEDSSSNAVFGSGTTLTVLG
notes: Bovine-human chimera with human IgG1 Fc; also called bAb-AC2
IC50 [1]: 24.4 nM
Ki [2]: 5.39 nM

B8: trastuzumab-beta BCCX2 HC long (antibody, human IgG1, kappa, V domains shown)
VH: EVQLVESGGGLVQPGGSLRLSCAASGFNIKDTYIHWVRQAPGKGLEWVARIYPTNGYTRYADSVKGRFTISADTSKNTAYLQMNSLRAEDTAVYYCSRETKKYQSYRKCRGGRRWCYQKSYTYNYEDYWGQGTLVTVSS
VL: not shown
notes: also called HLCX
IC50 [1]: 9.36 nM
Ki [2]: 2.07 nM
